Test results reported in US20200079842A1 (NETRIS PHARMA, published 2020).
Several values for one entry are separate records, joined by “and”; a condition that tells them apart may be missing. Equal values may be shown once.

Assays:
[1] = target: T1, His-tagged Netrin-1 (R&D 6419-N1) (human, UniProt O95631 25-604); test: ELISA, coated His-tagged netrin-1, luminescence
T1 construct: Bought protein; also called adsorbed netrin-1; not shown: His tag
Experimental: White 96-well microtiter plate (Costar 3912 Corning) was incubated overnight at 4° C. with 100 ng of His-tagged Netrin-1 (R&D 6419-N1) in 100 μL of Phosphate buffer saline (PBS). After three washings with 300 μL of PBS-0.05% TWEEN®-20 (PBS-T), the plate was blocked by addition of 100 μL of PBS-3% BSA and incubated 1 hour at room temperature. After three washings with 300 μL of PBS-T, the plate was incubated with various quantities (10 ng to 1200 ng) of the anti-netrin-1 antibody. After three washings with 300 μL of PBS-T, 100 μL of a relevant secondary antibody conjugated to horse radish peroxidase (e.g. goat anti-human IgG (Fc) Sigma A0170 or goat anti-mouse IgG light chain specific (kappa) Jackson Immunoresearch 115-035-174) diluted 1/10,000 in PBST-3% BSA was added and the plate was incubated 1 hour at room temperature. After three washings with 300 μL of PBS-T, 100 μL of a luminescent substrate of HRP (ECL western blotting substrate, PIERCE) is added. After 5 to 10 minutes, the luminescence was read on a Tecan Infinite F-500 luminometer.

[2] = target: T2, FLAG-tagged netrin-1 (Adipogen) (human, UniProt O95631 25-604, limits assumed); test: competition ELISA: FLAG-netrin-1 binding to coated UNC5B-Fc
T2 construct: Bought protein; also called FLAG®-tagged Netrin-1 (APOTECH); not shown: FLAG tag
Experimental: After three washings with 300 μL of PBS-0.05% TWEEN®-20 (PBS-T), the plate was blocked by addition of 100 μL of PBS-2% BSA and incubated 1 hour at room temperature. After three washings with 300 μL of PBS-T, the plate was incubated for 1 hour at room temperature, with 100 μL of PBS-1% BSA containing 50 ng/mL FLAG®-tagged netrin-1 (Adipogen) and various quantities (0.2 ng to 3000 ng) of the 4C11 antibody. After three washings with 300 μL of PBS-T, 100 μL of an anti-FLAG® M2 monoclonal antibody conjugated to horse radish peroxidase (HRP) (Sigma A8592) diluted 1/5,000 in PBST-1% BSA was added and the plate was incubated 1 hour at room temperature. After three washings with 300 μL of PBS-T, 100 μL of a luminescent substrate of HRP (ECL western blotting substrate, PIERCE) is added. After 5 to 10 minutes, the luminescence was read on a Tecan Infinite F-500 luminometer.

B1: 4C11 Fab (Fab, V domains shown)
VH: QAYLQQSGAELVRPGASVKMSCKASGYTFTSYNMHWVKQTPRQGLEWIGAIYPGNGDTSYNQKFKGKATLTVDKSSSTAYMQLSSLTSEDSAVYFCARGGTGFAYWGQGTLVTVSA
VL: SIVMTQTPKFLLVSAGDRVTITCKASQSVSNDVAWYQQKPGQSPKLLIYYASNRYTGVPDRFTGSGYGTDFTFTISTVQAEDLAVYFCQQDYSSPWTFGGGTKLEIK
notes: only the variable domains are tied to it; also called Fab fragment of murine 4C11
- EC50 [1]: 13 nM and 0.65 µg/mL
- IC50 [2]: 0.844 µg/mL and 16.9 nM

B2: 4C11 Fab′2 (other)
VH: QAYLQQSGAELVRPGASVKMSCKASGYTFTSYNMHWVKQTPRQGLEWIGAIYPGNGDTSYNQKFKGKATLTVDKSSSTAYMQLSSLTSEDSAVYFCARGGTGFAYWGQGTLVTVSA
VL: SIVMTQTPKFLLVSAGDRVTITCKASQSVSNDVAWYQQKPGQSPKLLIYYASNRYTGVPDRFTGSGYGTDFTFTISTVQAEDLAVYFCQQDYSSPWTFGGGTKLEIK
notes: only the variable domains are tied to it; also called Fab′2 fragment of murine 4C11
- EC50 [1]: 0.035 µg/mL and 0.35 nM
- IC50 [2]: 0.089 µg/mL and 0.89 nM

B3: HUM01 (antibody, human IgG1, V domains shown)
VH: QVQLVQSGAEVKKPGASVKVSCKASGYTFTSYNMHWVRQATGQGLEWMGAIYPGNGDTSYNQKFKGRVTITADKSTSTAYMELSSLRSEDTAVYYCARGGTGFAYWGQG
VL: EIVMTQSPATLSVSPGERATLSCKASQSVSNDVAWYQQKPGKAPKLLIYYASNRYTGIPPRFSGSGYGTDFTLTINNIESEDAAYYFCQQDYSSPWTFGQG
notes: also called humanized 4C11 variant HUM01
- EC50 [1]: 0.134 µg/mL and 0.894 nM
- IC50 [2]: 0.054 µg/mL and 0.36 nM

B4: HUM06 (antibody, human IgG1, V domains shown)
VH: QVQLVQSGAEVKKPGASVKVSCKASGYTFTSYNMHWVRQATGQGLEWMGAIYPGNGDTSYNQKFKGRVTITADKSTSTAYMELSSLRSEDTAVYYCARGGTGFAYWGQG
VL: DIQMTQSPSSLSASVGDRVTITCKASQSVSNDVAWYQQKPGQAPRLLIYYASNRYTGIPPRFSGSGYGTDFTLTINNIESEDAAYYFCQQDYSSPWTFGQG
notes: also called humanized 4C11 variant HUM06
- EC50 [1]: 0.139 µg/mL and 0.927 nM
- IC50 [2]: 0.082 µg/mL and 0.547 nM

B5: HUM09 (antibody, human IgG1, V domains shown)
VH: QVQLVQSGAEVKKPGASVKVSCKASGYTFTSYNMHWVRQATGQGLEWMGAIYPGNGDTSYNQKFKGRVTITADKSTSTAYMELSSLRSEDTAVYYCARGGTGFAYWGQG
VL: DIVMTQTPLSLPVTPGEPASISCKASQSVSNDVAWYQQKPGQAPRLLIYYASNRYTGIPPRFSGSGYGTDFTLTINNIESEDAAYYFCQQDYSSPWTFGQG
notes: also called humanized 4C11 variant HUM09
- EC50 [1]: 0.153 µg/mL and 1.02 nM
- IC50 [2]: 0.071 µg/mL and 0.474 nM

B6: HUM03 (antibody, human IgG1, V domains shown)
VH: QVQLQQSGPGLVKPSQTLSLTCAISGYTFTSYNMHWVRQATGQGLEWMGAIYPGNGDTSYNQKFKGRLTISKDTSKNQVVLTMTNMDPVDTATYYCARGGTGFAYWGQG
VL: DIQMTQSPSSLSASVGDRVTITCKASQSVSNDVAWYQQKPGQAPRLLIYYASNRYTGIPPRFSGSGYGTDFTLTINNIESEDAAYYFCQQDYSSPWTFGQG
notes: also called Humanized 4C11; humanized 4C11 hum03
- EC50 [1]: 0.166 µg/mL and 1.11 nM
- IC50 [2]: 0.065 µg/mL and 0.434 nM

B7: HUM08 (antibody, human IgG1, V domains shown)
VH: QVQLQQSGPGLVKPSQTLSLTCAISGYTFTSYNMHWVRQATGQGLEWMGAIYPGNGDTSYNQKFKGRLTISKDTSKNQVVLTMTNMDPVDTATYYCARGGTGFAYWGQG
VL: DIQMTQSPSSLSASVGDRVTITCKASQSVSNDVAWYLQKPGQSPQLLIYYASNRYTGVPSRFSGSGSGTDFTFTISSLEAEDAATYYCQQDYSSPWTFGQG
notes: also called humanized 4C11 variant HUM08
- EC50 [1]: 0.134 µg/mL and 0.894 nM
- IC50 [2]: 0.077 µg/mL and 0.514 nM

B8: HUM05 (antibody, human IgG1, V domains shown)
VH: QVQLQESGPGLVKPSQTLSLTCTVSGYTFTSYNMHWVRQAPGQGLEWMGAIYPGNGDTSYNQKFKGRVTISVDTSKNQFSLKLSSVTAADTAVYYCARGGTGFAYWGQG
VL: DIQMTQSPSSLSASVGDRVTITCKASQSVSNDVAWYLQKPGQSPQLLIYYASNRYTGVPSRFSGSGSGTDFTFTISSLEAEDAATYYCQQDYSSPWTFGQG
notes: also called humanized 4C11 variant HUM05
- EC50 [1]: 0.151 µg/mL and 1.01 nM
- IC50 [2]: 0.085 µg/mL and 0.567 nM

B9: HUM07 (antibody, human IgG1, V domains shown)
VH: QVQLQQSGPGLVKPSQTLSLTCAISGYTFTSYNMHWVRQATGQGLEWMGAIYPGNGDTSYNQKFKGRVTITADKSTSTAYMELSSLRSEDTAVYYCARGGTGFAYWGQG
VL: DIQMTQSPSSLSASVGDRVTITCKASQSVSNDVAWYLQKPGQSPQLLIYYASNRYTGVPSRFSGSGSGTDFTFTISSLEAEDAATYYCQQDYSSPWTFGQG
notes: also called humanized 4C11 variant HUM07
- EC50 [1]: 0.125 µg/mL and 0.834 nM
- IC50 [2]: 0.089 µg/mL and 0.594 nM

B10: HUM02 (antibody, human IgG1, V domains shown)
VH: QVQLQQSGPGLVKPSQTLSLTCAISGYTFTSYNMHWIRQPPGKGLEWIGAIYPGNGDTSYNQKFKGRVTITADKSTSTAYMELSSLRSEDTAVYYCARGGTGFAYWGQG
VL: DIQMTQSPSSLSASVGDRVTITCKASQSVSNDVAWFQQRPGQSPRRLIYYASNRYTGVPSRFSGSGSGTDFTFTISSLEAEDAATYYCQQDYSSPWTFGQG
notes: also called humanized 4C11 variant HUM02
- EC50 [1]: 0.26 µg/mL and 1.73 nM
- IC50 [2]: 0.215 µg/mL and 1.43 nM

B11: HUM10 (antibody, human IgG1, V domains shown)
VH: QVQLQQSGPGLVKPSQTLSLTCAISGYTFTSYNMHWIRQPPGKGLEWIGAIYPGNGDTSYNQKFKGRVTITADKSTSTAYMELSSLRSEDTAVYYCARGGTGFAYWGQG
VL: DIQMTQSPSSLSASVGDRVTITCKASQSVSNDVAWYQQKPGQAPRLLIYYASNRYTGIPPRFSGSGYGTDFTLTINNIESEDAAYYFCQQDYSSPWTFGQG
notes: also called humanized 4C11 variant HUM10
- EC50 [1]: 0.211 µg/mL and 1.41 nM
- IC50 [2]: 0.11 µg/mL and 0.734 nM

B12: HUM04 (antibody, human IgG1, V domains shown)
VH: EVQLVQSGAEVKKPGESLRISCKGSGYTFTSYNMHWVRQATGQGLEWMGAIYPGNGDTSYNQKFKGRFTISRDDSKNTAYLQMNSLKTEDTAVYYCARGGTGFAYWGQG
VL: DIQMTQSPSSLSASVGDRVTITCKASQSVSNDVAWYLQKPGQSPQLLIYYASNRYTGVPSRFSGSGSGTDFTFTISSLEAEDAATYYCQQDYSSPWTFGQG
notes: also called humanized 4C11 variant HUM04
- EC50 [1]: 0.198 µg/mL and 1.32 nM
- IC50 [2]: 0.199 µg/mL and 1.33 nM

B13: 4C11 murine IgG2a (antibody, V domains shown)
VH: QAYLQQSGAELVRPGASVKMSCKASGYTFTSYNMHWVKQTPRQGLEWIGAIYPGNGDTSYNQKFKGKATLTVDKSSSTAYMQLSSLTSEDSAVYFCARGGTGFAYWGQGTLVTVSA
VL: SIVMTQTPKFLLVSAGDRVTITCKASQSVSNDVAWYQQKPGQSPKLLIYYASNRYTGVPDRFTGSGYGTDFTFTISTVQAEDLAVYFCQQDYSSPWTFGGGTKLEIK
- EC50 [1]: 0.063 µg/mL and 0.42 nM
- IC50 [2]: 0.085 µg/mL and 0.567 nM
